Drawing on publication PMC11144216, this text covers percent of Aβ aggregates that are co-aggregates (colocalisation by number) for two substances.

The experiment addresses diffusible Aβ aggregates from postmortem frontal cortex of AD patients (human (endogenous in postmortem frontal cortex)). As to the kind of experiment: single-molecule pull-down (SiMPull); soaked-brain extracts (neat) of frontal cortex of APOE4/4 and APOE3/3 AD patients; captured by biotinylated 6E10; detected with Alexa-Fluor-647 6E10 and Alexa-Fluor-488 EPR19392; two-colour TIRF, colocalisation.

“apoE3 in frontal-cortex extracts of homozygous APOE3 AD patients (from UniProt P02649 19-317) (natural protein)” yielded a percent of Aβ aggregates that are co-aggregates (colocalisation by number) of 1%. The same measure for “apoE4 in frontal-cortex extracts of homozygous APOE4 AD patients (from UniProt P02649 19-317) (natural protein)”: 5%.
